Experiments:
[1] = molecular target: Spindlin1/C11orf84 complex (human) (UniProt Q9BUA3); test: ITC; 25 °C, MicroCal ITC200; 20 mM HEPES pH 7.5, 150 mM NaCl; 0.8 mM H3 peptide injected into 50 μM protein or complex in the sample cell
[2] = molecular target: Spindlin1 Y91A/C11orf84 complex (human) (UniProt Q9Y657); test: ITC; 25 °C, MicroCal ITC200; 20 mM HEPES pH 7.5, 150 mM NaCl; 50 μM Spindlin1 or Spindlin1/C11orf84 complex in the cell, 0.8 mM peptide injected
Target sequence in this assay (Q9Y657 50-262 Y91A, chain 1 of 2): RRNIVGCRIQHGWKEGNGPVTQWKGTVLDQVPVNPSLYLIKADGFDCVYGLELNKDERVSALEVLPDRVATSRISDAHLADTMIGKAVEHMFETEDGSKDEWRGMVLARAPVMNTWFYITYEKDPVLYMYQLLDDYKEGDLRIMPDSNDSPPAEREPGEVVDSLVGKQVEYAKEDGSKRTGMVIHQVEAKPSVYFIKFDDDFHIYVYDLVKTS
Target sequence in this assay (Q9BUA3 whole entry, chain 2 of 2, further chain): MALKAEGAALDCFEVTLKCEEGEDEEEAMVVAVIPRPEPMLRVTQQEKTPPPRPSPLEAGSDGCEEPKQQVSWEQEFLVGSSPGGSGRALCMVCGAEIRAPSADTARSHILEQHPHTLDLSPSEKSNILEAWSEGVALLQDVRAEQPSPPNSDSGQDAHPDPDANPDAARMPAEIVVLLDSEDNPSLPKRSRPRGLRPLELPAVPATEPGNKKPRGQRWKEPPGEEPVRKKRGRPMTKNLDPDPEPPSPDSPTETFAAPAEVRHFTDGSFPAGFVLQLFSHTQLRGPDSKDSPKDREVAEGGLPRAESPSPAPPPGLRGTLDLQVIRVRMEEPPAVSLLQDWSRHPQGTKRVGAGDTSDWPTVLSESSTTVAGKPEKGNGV

[3] = molecular target: Spindlin1 Y98A/C11orf84 complex (human) (UniProt Q9Y657); test: as above
Target sequence in this assay (Q9Y657 50-262 Y98A, chain 1 of 2): as the sequence (Q9Y657 50-262 Y91A, chain 1 of 2) above, with A42Y, Y49A counted along it
Target sequence in this assay (Q9BUA3 whole entry, chain 2 of 2, further chain): as the sequence (Q9BUA3 whole entry, chain 2 of 2, further chain) above

[4] = molecular target: Spindlin1 W62A/C11orf84 complex (human) (UniProt Q9Y657); test: as above
Target sequence in this assay (Q9Y657 50-262 W62A, chain 1 of 2): as the sequence (Q9Y657 50-262 Y91A, chain 1 of 2) above, with W13A, A42Y counted along it
Target sequence in this assay (Q9BUA3 whole entry, chain 2 of 2, further chain): as the sequence (Q9BUA3 whole entry, chain 2 of 2, further chain) above

[5] = molecular target: Spindlin1 F141A/C11orf84 complex (human) (UniProt Q9Y657); test: as above
Target sequence in this assay (Q9Y657 50-262 F141A, chain 1 of 2): as the sequence (Q9Y657 50-262 Y91A, chain 1 of 2) above, with A42Y, F92A counted along it
Target sequence in this assay (Q9BUA3 whole entry, chain 2 of 2, further chain): as the sequence (Q9BUA3 whole entry, chain 2 of 2, further chain) above

[6] = molecular target: Spindlin1 W72A/C11orf84 complex (human) (UniProt Q9Y657); test: as above
Target sequence in this assay (Q9Y657 50-262 W72A, chain 1 of 2): as the sequence (Q9Y657 50-262 Y91A, chain 1 of 2) above, with W23A, A42Y counted along it
Target sequence in this assay (Q9BUA3 whole entry, chain 2 of 2, further chain): as the sequence (Q9BUA3 whole entry, chain 2 of 2, further chain) above

[7] = molecular target: Spindlin1 W62A/W72A/C11orf84 complex (human) (UniProt Q9Y657); test: as above
Target sequence in this assay (Q9Y657 50-262 W62A/W72A, chain 1 of 2): as the sequence (Q9Y657 50-262 Y91A, chain 1 of 2) above, with W13A, W23A, A42Y counted along it
Target sequence in this assay (Q9BUA3 whole entry, chain 2 of 2, further chain): as the sequence (Q9BUA3 whole entry, chain 2 of 2, further chain) above

[8] = molecular target: Spindlin1 (aa: 50–262) (human) (UniProt Q9Y657); test: as above
[9] = molecular target: Spindlin1/C11orf84 complex (human) (UniProt Q9Y657); test: as above
[10] = molecular target: Spindlin1 Y91A/C11orf84 complex (human) (UniProt Q9Y657); test: ITC; 25 °C, MicroCal ITC200; 20 mM HEPES pH 7.5, 150 mM NaCl; 0.8 mM H3 peptide injected into 50 μM protein or complex in the sample cell
[11] = molecular target: Spindlin1 Y98A/C11orf84 complex (human) (UniProt Q9Y657); test: as above
[12] = molecular target: Spindlin1 W62A/C11orf84 complex (human) (UniProt Q9Y657); test: as above
[13] = molecular target: Spindlin1 F141A/C11orf84 complex (human) (UniProt Q9Y657); test: as above
[14] = molecular target: Spindlin1 D173A/C11orf84 complex (human) (UniProt Q9Y657); test: as above
[15] = molecular target: Spindlin1 W72A/C11orf84 complex (human) (UniProt Q9Y657); test: as above
[16] = molecular target: Spindlin1 W62A/W72A/C11orf84 complex (human) (UniProt Q9Y657); test: as above

Chain of Spindlin1 (aa: 50–262) (human) (Q9Y657 50-262): as the sequence (Q9Y657 50-262 Y91A, chain 1 of 2) above, with A42Y counted along it

Substance: H3K4me3 peptide, H3 (1-12)
- Kd [1]: 0.213 µM
- stoichiometry N [1]: 1.01

Substance: H3K4me3K9me2 peptide, H3 (1-12)
- Kd [1]: 0.042 µM
- stoichiometry N [1]: 1.01

Substance: H3K4me3K9me3 peptide
- fold reduction in binding affinity against wild type [2]: 3 fold
- fold reduction in binding affinity against wild type [3]: 3 fold
- fold reduction in binding affinity against wild type [4]: 3 fold
- fold reduction in binding affinity against wild type [5]: 40 fold
- fold reduction in binding affinity against wild type [6]: 3 fold
- fold reduction in binding affinity against wild type [7]: 10 fold
- Kd [8]: 0.046 µM
- Kd [9]: 0.02 µM

Substance: H3K4me3K9me3 peptide, H3 (1-12)
- stoichiometry N [10]: 1.07
- stoichiometry N [11]: 1.07
- stoichiometry N [12]: 1.06
- stoichiometry N [13]: 1.03
- stoichiometry N [14]: 1.04
- stoichiometry N [15]: 1.07
- stoichiometry N [16]: 1
- stoichiometry N [1]: 1.02

Substance: H3K4me3R8me2a peptide, H3 (1-12)
- Kd [1]: 0.082 µM
- stoichiometry N [1]: 1.04

Substance: H3K9me3 peptide, H3 (1-12)
- Kd [1]: 2.88 µM
- stoichiometry N [1]: 1.02
